From publication doi:10.1101/2025.09.05.674436 (bioRxiv, 2025) come the findings set out here.

In data set [1] the target is UBE2D3 WT (UniProt P61077 1-147). The data set is described as follows: ITC. A general note: Isothermal titration calorimetry measures the heat released or taken up as one component is titrated into another.
Data set [2] concerns the molecule itself. The data set is described as follows: native gel or EMSA.
Data set [3] deals with the molecule itself. The data set is described as follows: semi-denaturing detergent agarose gel electrophoresis.
Data set [4] deals with the molecule itself. Description: SDS-PAGE of LDS-resistant high molecular weight species.

Positions count from the first letter of the chain named. Names may count otherwise.

Sequence of UBE2D3 WT (P61077 whole entry): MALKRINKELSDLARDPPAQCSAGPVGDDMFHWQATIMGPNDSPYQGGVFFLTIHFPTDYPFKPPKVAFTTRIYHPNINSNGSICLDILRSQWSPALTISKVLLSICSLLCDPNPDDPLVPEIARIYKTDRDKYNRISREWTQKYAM

B1: ZNFX1 Z-RING (residues 1533-1631), wild type (domain or fragment)
chain: RPPCYVPCTKLLVCGHPCIGLCGEPCPKKCRICHMDEVTQIFFGFEDEPDARFVQLEDCSHIFEVQALDRYMNEQKDDEVAIRLKVCPICQVPIRKNLR
In data set [1], B1 showed a Kd of 41 µM and a dH of 2.04 kcal/mol.

B2: WT-ZNFX1 reconstituted in T-REx-293 ZNFX1 KO cells (enzyme)
chain: MEERRPHLDARPRNSHTNHRGPVDGELPPRARNQANNPPANALRGGASHPGRHPRANNHPAAYWQREERFRAMGRNPHQGRRNQEGHASDEARDQRHDQENDTRWRNGNQDCRNRRPPWSNDNFQQWRTPHQKPTEQPQQAKKLGYKFLESLLQKDPSEVVITLATSLGLKELLSHSSMKSNFLELICQVLRKACSSKMDRQSVLHVLGILKNSKFLKVCLPAYVVGMITEPIPDIRNQYPEHISNIISLLQDLVSVFPASSVQETSMLVSLLPTSLNALRASGVDIEEETEKNLEKVQTIIEHLQEKRREGTLRVDTYTLVQPEAEDHVESYRTMPIYPTYNEVHLDERPFLRPNIISGKYDSTAIYLDTHFRLLREDFVRPLREGILELLQSFEDQGLRKRKFDDIRIYFDTRIITPMCSSSGIVYKVQFDTKPLKFVRWQNSKRLLYGSLVCMSKDNFETFLFATVSNREQEDLCRGIVQLCFNEQSQQLLAEVQPSDSFLMVETTAYFEAYRHVLEGLQEVQEEDVPFQRNIVECNSHVKEPRYLLMGGRYDFTPLIENPSATGEFLRNVEGLRHPRINVLDPGQWPSKEALKLDDSQMEALQFALTRELAIIQGPPGTGKTYVGLKIVQALLTNESVWQISLQKFPILVVCYTNHALDQFLEGIYNCQKTSIVRVGGRSNSEILKQFTLRELRNKREFRRNLPMHLRRAYMSIMTQMKESEQELHEGAKTLECTMRGVLREQYLQKYISPQHWESLMNGPVQDSEWICFQHWKHSMMLEWLGLGVGSFTQSVSPAGPENTAQAEGDEEEEGEEESSLIEIAEEADLIQADRVIEEEEVVRPQRRKKEESGADQELAKMLLAMRLDHCGTGTAAGQEQATGEWQTQRNQKKKMKKRVKDELRKLNTMTAAEANEIEDVWQLDLSSRWQLYRLWLQLYQADTRRKILSYERQYRTSAERMAELRLQEDLHILKDAQVVGMTTTGAAKYRQILQKVEPRIVIVEEAAEVLEAHTIATLSKACQHLILIGDHQQLRPSANVYDLAKNFNLEVSLFERLVKVNIPFVRLNYQHRMCPEIARLLTPHIYQDLENHPSVLKYEKIKGVSSNLFFVEHNFPEQEIQEGKSHQNQHEAHFVVELCKYFLCQEYLPSQITILTTYTGQLFCLRKLMPAKTFAGVRVHVVDKYQGEENDIILLSLVRSNQEGKVGFLQISNRICVALSRAKKGMYCIGNMQMLAKVPLWSKIIHTLRENNQIGPMLRLCCQNHPETHTLVSKASDFQKVPEGGCSLPCEFRLGCGHVCTRACHPYDSSHKEFQCMKPCQKVICQEGHRCPLVCFQECQPCQVKVPKTIPRCGHEQMVPCSVPESDFCCQEPCSKSLRCGHRCSHPCGEDCVQLCSEMVTIKLKCGHSQPVKCGHVEGLLYGGLLVKCTTKCGTILDCGHPCPGSCHSCFEGRFHERCQQPCKRLLICSHKCQEPCIGECPPCQRTCQNRCVHSQCKKKCGELCSPCVEPCVWRCQHYQCTKLCSEPCNRPPCYVPCTKLLVCGHPCIGLCGEPCPKKCRICHMDEVTQIFFGFEDEPDARFVQLEDCSHIFEVQALDRYMNEQKDDEVAIRLKVCPICQVPIRKNLRYGTSIKQRLEEIEIIKEKIQGSAGEIATSQERLKALLERKSLLHQLLPEDFLMLKEKLAQKNLSVKDLGLVENYISFYDHLASLWDSLKKMHVLEEKRVRTRLEQVHEWLAKKRLSFTSQELSDLRSEIQRLTYLVNLLTRYKIAEKKVKDSIAVEVYSVQNILEKTCKFTQEDEQLVQEKMEALKATLPCSGLGISEEERVQIVSAIGYPRGHWFKCRNGHIYVIGDCGGAMERGTCPDCKEVIGGTNHTLERSNQLASEMDGAQHAAWSDTANNLMNFEEIQGMM
As to B2, in data set [2], the “stoichiometry N” value was 2.

B3: full length ZNFX1 expressed in insect cells (ZNFX1FL) (enzyme)
chain: B2 chain
For B3, in data set [3], the binding result is reported as “binds”.

B4: ZNFX1FL F1210A/R1216A (FARA mutant) (enzyme)
chain: B2 chain with F1210A, R1216A
Take B4: in data set [4], the binding result is reported as “binds”.

In general, Kd refers to the concentration at which binding is half-saturated. A high value points to a looser complex. By stoichiometry N is commonly meant a count of units in the complex or per binding partner.
